Assay results: US20140322220A1 (Bayer, published 2014)
Numbered stars: 1 amine (or outer) side, 2 acyl side, 3 side chain; on linkers, the order of the positions; unused ones are H or OH. Square brackets hold non-standard residues; d marks the D form. Ends that are not written are not given here. * marks the point of attachment. Biotin = O=C1N[C@H]2[C@H](CS[C@H]2CCCCC(=O)*)N1; Ttds = O=C(CCC(=O)[*:2])NCCCOCCOCCOCCCN[*:1]

T1: RPSFSLVEDTTLEPEG-Ttds-Lys(Biotin) (human)
T1 construct: Synthesized by JPT Peptide Technology
T1 peptide: RPSFSLVEDTTLEPEG[Ttds]K(Biotin)

T2: hFGFR2β-Fc (IIIb) (human, UniProt P21802 22-377, biotinylated with biotin-LC-NHS)
T2 construct: also called FGFR2-2β Fc (IIIb)
T2 chain: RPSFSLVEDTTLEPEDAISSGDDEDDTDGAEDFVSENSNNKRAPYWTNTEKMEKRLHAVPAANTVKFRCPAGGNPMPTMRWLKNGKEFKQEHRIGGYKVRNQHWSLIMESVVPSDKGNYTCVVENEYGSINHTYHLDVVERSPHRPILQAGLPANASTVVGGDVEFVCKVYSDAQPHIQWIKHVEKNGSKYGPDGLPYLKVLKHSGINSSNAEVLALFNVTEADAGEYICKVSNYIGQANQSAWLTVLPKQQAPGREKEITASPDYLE

T3: hFGFR2α-Fc (IIIb) (human, UniProt P21802 22-377, biotinylated with biotin-LC-NHS)
T3 construct: Bought, R&D Systems 663-FR, soluble Fc fusion
T3 chain: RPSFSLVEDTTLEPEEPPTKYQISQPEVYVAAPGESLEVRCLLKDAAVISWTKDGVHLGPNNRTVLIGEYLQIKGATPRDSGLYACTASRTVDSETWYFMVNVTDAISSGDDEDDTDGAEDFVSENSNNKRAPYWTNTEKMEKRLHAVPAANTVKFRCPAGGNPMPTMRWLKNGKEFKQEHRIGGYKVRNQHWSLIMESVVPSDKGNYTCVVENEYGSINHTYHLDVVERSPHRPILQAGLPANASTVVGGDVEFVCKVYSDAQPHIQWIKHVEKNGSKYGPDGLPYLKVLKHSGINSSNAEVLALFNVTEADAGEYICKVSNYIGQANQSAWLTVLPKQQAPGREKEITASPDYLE

T4: hFGFR4-Fc (human, UniProt P22455 22-369, biotinylated with biotin-LC-NHS)
T4 construct: Bought, R&D Systems, printed Cat. No. 685-MF
T4 sequence (looked up): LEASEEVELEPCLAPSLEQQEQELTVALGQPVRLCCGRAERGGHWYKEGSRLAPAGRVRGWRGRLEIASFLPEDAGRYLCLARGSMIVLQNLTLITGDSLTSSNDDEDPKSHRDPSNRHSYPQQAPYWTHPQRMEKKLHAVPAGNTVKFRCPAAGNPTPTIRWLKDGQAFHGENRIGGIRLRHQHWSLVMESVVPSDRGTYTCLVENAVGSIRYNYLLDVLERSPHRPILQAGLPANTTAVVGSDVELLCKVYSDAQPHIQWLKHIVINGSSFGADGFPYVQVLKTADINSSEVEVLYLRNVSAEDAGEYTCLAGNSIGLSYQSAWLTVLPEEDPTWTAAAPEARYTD

T5: hFGFR3-Fc (IIIb) (human, UniProt P22607-2 23-377, biotinylated with biotin-LC-NHS)
T5 construct: Bought, R&D Systems 1264-FR
T5 sequence (looked up): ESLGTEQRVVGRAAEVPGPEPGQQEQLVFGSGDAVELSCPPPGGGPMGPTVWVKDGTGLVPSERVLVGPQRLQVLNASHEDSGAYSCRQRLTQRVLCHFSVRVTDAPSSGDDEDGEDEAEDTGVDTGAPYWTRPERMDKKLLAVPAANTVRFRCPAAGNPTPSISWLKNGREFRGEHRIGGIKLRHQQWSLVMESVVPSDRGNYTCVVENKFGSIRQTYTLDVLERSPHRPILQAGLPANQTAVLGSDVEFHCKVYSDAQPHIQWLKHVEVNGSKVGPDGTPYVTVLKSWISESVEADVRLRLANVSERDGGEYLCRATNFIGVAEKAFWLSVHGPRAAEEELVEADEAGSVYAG

T6: hFGFR1β-Fc (IIIc) (human, UniProt P11362-14 22-285, limits assumed, biotinylated with biotin-LC-NHS)
T6 construct: Bought, R&D Systems 661-FR
T6 sequence (looked up): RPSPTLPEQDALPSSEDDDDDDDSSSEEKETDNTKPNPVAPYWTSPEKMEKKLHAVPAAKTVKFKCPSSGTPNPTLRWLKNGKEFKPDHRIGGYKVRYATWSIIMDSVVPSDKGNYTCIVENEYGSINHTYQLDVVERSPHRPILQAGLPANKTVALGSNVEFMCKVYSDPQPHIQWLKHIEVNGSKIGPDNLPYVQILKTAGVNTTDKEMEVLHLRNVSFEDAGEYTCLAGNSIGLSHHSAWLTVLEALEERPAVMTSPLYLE


What was measured:
[1] = target: T1, RPSFSLVEDTTLEPEG-Ttds-Lys(Biotin); experiment: peptide binding ELISA, antibody captured by anti-human IgG Fc, biotinylated peptide titrated
Excerpt: (§1) Two different types of ELISA were used to determine the binding improvement of mutated variants: a) Peptide Binding ELISA: a synthetic peptide comprising the amino acid sequence of the epitope linked C-terminally to a biotinylated lysine […]-Ttds-Lys(Biotin) (peptide sequence derived from SEQ ID NO:63, synthesized by JPT Peptide Technology GmbH, Berlin, Germany), and b) Recombinant Protein Binding ELISA: recombinant human FGFR2 (DNA sequence of human FGFR2 (NP 000132.3) Met 1-Glu 377, fused with a polyhistidine tag at the C-terminus; #10824-1-1081-1, Sin θ Biological Inc., Beijing, China).
(§2) Briefly, in both ELISA formats MTP plates (384 well Maxisorp, Nunc) were coated with 20 μl, anti-human IgG Fc specific (#12136; sigma) at 2.2 μg/ml for 2.5 h at 37° C. in coating buffer (#121125 Candor Bioscience GmbH). […] Anti-FGFR2 variants were immobilized in concentrations of 0.035 μg/ml (peptide based assay) or 0.2 μg/ml (recombinant human FGFR2 protein based assay) in 10% Smart Block in PBST depending on the format and variants to be analyzed by incubation of 20 μl for one hour at 20-22° C. After one washing step using 50 μl PBST, 20 μl quadruplets of the antigen dilution series in 10% SmartBlock in PBST with a maximum concentration of 100 nM were added and incubated for 1 h at 20-22° C. and the washing step was repeated 3 times. For the detection of the biotinylated epitope peptide 20 μl of streptavidine/POD conjugate (# S5512, Sigma) in a 1:1000 dilution in 10% SmartBlock in PBST were applied for one hour at 20-22° C. For the detection of the recombinant FGFR2 protein 20 μl of anti-His/HRP conjugate (#71840, novagen) in a 1:10000 dilution in 10% SmartBlock in PBST were applied for one hour at 20-22° C. After 3 washing steps 20 μl of 10 μM amplex red substrate (# A12222, Invitrogen) in 50 mM Sodium hydrogen phosphate, pH 7.6, were added and the fluorescence signal was detected using a common fluorescence reader, e.g. Tecan M1000. EC50 values were evaluated by fitting the data (Sigmoida) dose-response, variable slope, bottom set to background; GraphPad Prism software).

[2] = target: T7, recombinant human FGFR2 (Met 1-Glu 377) with C-terminal polyhistidine tag (human, UniProt P21802 22-377); experiment: protein binding ELISA, antibody captured by anti-human IgG Fc, FGFR2-His titrated
T7 construct: The range is that of the expressed DNA and begins at Met 1; also called His-tagged FGFR2; recombinant human FGFR2-IIIc molecule
Excerpt: as §1, §2

[3] = target: T7, recombinant human FGFR2 (Met 1-Glu 377) …; experiment: protein binding ELISA; against TPP-1403
Excerpt: as §1, §2

[4] = target: T1, RPSFSLVEDTTLEPEG-Ttds-Lys(Biotin); experiment: peptide binding ELISA; against TPP-1403
Excerpt: as §1, §2

hFGFR2β-Fc (IIIb) = target: T2, hFGFR2β-Fc (IIIb); experiment: ELISA, 1 ug/ml Fab on coated antigen; grade of signal to background (+ 2-3, ++ 3-5, +++ >5)
Description: (§3) For the ELISA 96-well plates pre-coated with streptavidin (Pierce, 15500) were coated over night at 4° C. with 1 μg/ml biotinylated protein. Wells coated with biotinylated TRAIL-Fc served as a reference. The next day plates were washed 3 times with PBST, treated with blocking reagent, and washed again 3 times with PBST. 100 μl of purified Fabs (1 μg/ml) were added and incubated for 1 h at r.t. After washing 3 times with PBST, an anti-hIgG (Fab-specific) coupled to HRP (1:2500 diluted; Sigma; A 0293) was added and incubated for 1 h at Lt. Color reaction was developed by addition of 50 μl TMB (Invitrogen, 2023) and stopped after 5-15 min by adding 50 μl H₂SO₄ (Merck, 1120801000). Colorimetric reaction was recorded at […] in a plate reader (Tecan). Wells containing TRAIL-Fc were used as background values and the signal to background ratios were calculated as summarized in Table 4.

mFGFR2β-Fc (IIIb) = target: T8, mFGFR2β-Fc (IIIb) (murine, UniProt P21803-2 22-263, limits assumed, biotinylated with biotin-LC-NHS); experiment: as above
T8 construct: Bought, R&D Systems 708-MF
T8 sequence (P21803 other isoform, or with tags, fused parts or gaps limits assumed): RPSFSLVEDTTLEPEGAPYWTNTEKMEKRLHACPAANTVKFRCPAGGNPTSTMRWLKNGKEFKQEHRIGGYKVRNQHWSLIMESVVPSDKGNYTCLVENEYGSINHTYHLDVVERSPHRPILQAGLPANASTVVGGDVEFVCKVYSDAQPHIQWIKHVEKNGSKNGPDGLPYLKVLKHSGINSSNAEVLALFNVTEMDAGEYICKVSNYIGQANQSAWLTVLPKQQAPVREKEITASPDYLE
Description: as §3

hFGFR2α-Fc (IIIb) = target: T3, hFGFR2α-Fc (IIIb); experiment: as above
Description: as §3

hFGFR4-Fc = target: T4, hFGFR4-Fc; experiment: ELISA on coated biotinylated Fc fusion
Description: as §3

hFGFR3-Fc (IIIb) = target: T5, hFGFR3-Fc (IIIb); experiment: ELISA on coated biotinylated Fc fusion
Description: as §3

hFGFR1β-Fc (IIIc) = target: T6, hFGFR1β-Fc (IIIc); experiment: ELISA on coated biotinylated Fc fusion
Description: as §3

Binder | EC50 [1] [nM] | EC50 [2] [nM] | fold EC50 reduction [3] [fold] | fold EC50 reduction [4] [fold] | ELISA signal to background ratio (hFGFR2β-Fc (IIIb)) [ratio] | ELISA signal to background ratio (mFGFR2β-Fc (IIIb)) [ratio] | ELISA signal to background ratio (hFGFR2α-Fc (IIIb)) [ratio] | binding result (hFGFR4-Fc) | binding result (hFGFR3-Fc (IIIb)) | binding result (hFGFR1β-Fc (IIIc))
TPP-1399 (antibody, human IgG1, lambda, V domains shown, Matured variant of M048-D01) VH: EVQLLESGGGLVQPGGSLRLSCAASGFTFSSYAMSWVRQAPGKGLEWVSAISKSGGSTFYADSVKGRFTISRDNSKNTLYLQMNSLRAEDTAVYYCARVRYKWGEGDWFDPWGQGTLVTVSS VL: AQSVLTQPPSASGTPGQRVTISCSGSSSNIGENYVSWYQQLPGTAPKLLIYENYKRPSGVPDRFSGSKSGTSASLAISGLRSEDEADYYCAAWDDSGNSWVFGGGTKLTVLG | 0.006 | 0.21 | 39 | > 1500 | – | – | – | – | – | –
TPP-1401 (antibody, human IgG1, lambda, V domains shown, Matured variant of M048-D01) VH: EVQLLESGGGLVQPGGSLRLSCAASGFTFSSYAMSWVRQAPGKGLEWVSAISKSGGSTFYADSVKGRFTISRDNSKNTLYLQMNSLRAEDTAVYYCARVRYIWNEGDWFDPWGQGTLVTVSS VL: not shown | 0.006 | 0.2 | 39 | > 1700 | – | – | – | – | – | –
TPP-1402 (antibody, human IgG1, lambda, V domains shown, Matured variant of M048-D01) VH: EVQLLESGGGLVQPGGSLRLSCAASGFTFSSYAMSWVRQAPGKGLEWVSAISKSGGSTFYADSVKGRFTISRDNSKNTLYLQMNSLRAEDTAVYYCARVRYIWNHGDWFDPWGQGTLVTVSS VL: not shown | 0.007 | 0.22 | 37 | > 1500 | – | – | – | – | – | –
M047-D08 (soluble Fab) (Fab, V domains shown, Soluble Fab from E. coli, purified through its His-tag) VH: EVQLLESGGGLVQPGGSLRLSCAASGFTFRTSGMHWVRQAPGKGLEWVAVISYDGSNKYYADSVKGRFTISRDNSKNTLYLQMNSLRAEDTAVYYCARESPGYDFEYWGQGTLVTVSS VL: not shown | – | – | – | – | > 5 | > 5 | > 5 | no binding | no binding | no binding

Second part, the binder after the results:

EC50 [1] [nM] | EC50 [2] [nM] | fold EC50 reduction [3] [fold] | fold EC50 reduction [4] [fold] | ELISA signal to background ratio (hFGFR2β-Fc (IIIb)) [ratio] | ELISA signal to background ratio (mFGFR2β-Fc (IIIb)) [ratio] | ELISA signal to background ratio (hFGFR2α-Fc (IIIb)) [ratio] | binding result (hFGFR4-Fc) | binding result (hFGFR3-Fc (IIIb)) | binding result (hFGFR1β-Fc (IIIc)) | Binder
0.005 | 0.2 | 39 | > 2000 | – | – | – | – | – | – | TPP-1398 (antibody, human IgG1, lambda, V domains shown, Matured variant of M048-D01) VH: EVQLLESGGGLVQPGGSLRLSCAASGFTFSSYAMSWVRQAPGKGLEWVSAISRSGGSTYYADSVKGRFTISRDNSKNTLYLQMNSLRAEDTAVYYCARVRYIWNEGDWFDPWGQGTLVTVSS VL: not shown
0.009 | 0.48 | 17 | > 1100 | – | – | – | – | – | – | TPP-1400 (antibody, human IgG1, lambda, V domains shown, Matured variant of M048-D01) VH: EVQLLESGGGLVQPGGSLRLSCAASGFTFSSYAMSWVRQAPGKGLEWVSAISRSGGSTYYADSVKGRFTISRDNSKNTLYLQMNSLRAEDTAVYYCARVRYIWNEGDWFDPWGQGTLVTVSS VL: not shown
– | – | – | – | 2 to 3 | 3 to 5 | 3 to 5 | no binding | no binding | no binding | M054-D03 (soluble Fab) (Fab, V domains shown, Soluble Fab from E. coli, purified through its His-tag) VH: EVQLLESGGGLVQPGGSLRLSCAASGFTFSNYGMHWVRQAPGKGLEWVAVISYDGSNKYYADSVKGRFTISRDNSKNTLYLQMNSLRAEDTAVYYCAKETNDVPFDYWGQGTLVTVSS VL: not shown
